Biological target: efna1_mouse Efna1 (UniProt P52793)
Sequence (P52793 whole entry): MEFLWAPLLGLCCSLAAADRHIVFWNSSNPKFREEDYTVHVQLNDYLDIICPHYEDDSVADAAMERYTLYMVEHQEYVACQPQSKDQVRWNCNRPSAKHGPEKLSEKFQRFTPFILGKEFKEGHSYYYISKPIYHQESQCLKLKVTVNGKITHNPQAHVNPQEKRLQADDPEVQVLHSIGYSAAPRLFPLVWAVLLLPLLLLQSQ

Question: “Ephrin type-A receptor 7 (Homo sapiens), Q15375 T105Q” was tested. Which “effect of a mutation on the interaction” value did it give?
Answer: Its value is “decreasing interaction”.

Source: IntAct's records for PubMed 22036564
